Measured values from publication PMC6363164.

Target: Rab7-RILP complex (human) (UniProt P51149)
Experiment: ITC; 20 °C; 20 mM Tris-HCl pH 7.5, 150 mM NaCl; 1 mM ORP1 ANK in the syringe, 0.1 mM Rab7 or Rab7-RILP in the cell; Rab7 Q67L with 0.5 mM GTP, Rab7 T22N with 0.5 mM GDP; independent binding model

B1: human ORP1 ANK domain (residue 5-152) (domain or fragment)
chain: AEQQLLHHARNGNAEEVRQLLETMARNEVIADINCKGRSKSNLGWTPLHLACYFGHRQVVQDLLKAGAEVNVLNDMGDTPLHRAAFTGRKELVMLLLEYNADTTIVNGSGQTAKEVTHAEEIRSMLEAVERTQQRKLEELLLAAAREG
  Kd: 5 µM
